Laboratory results: patent EP2402371A1

Each binder was assayed against extracellular domain of human GPVI (human) (UniProt Q9HCN6) (assay: SPR (Biacore 3000), human GPVI immobilised by amine coupling, Fab as analyte).

Binder	Kd	koff	kon
humanized anti-GPVI Fab VL1/VH1 (Fab, V domains shown) VH: QVQLQESGPGLVAPSQSLSITCTVSGFSLTGYGVNWVRQPPSRGLEWLGMIWGDGSTDYQSTLKSRLSISKDTSKSQVFLKMNSLTTDDTARYYCARDLPMDYWGQGTSVTVSS VL: DIQMTQSPSSLSASVGGRVTITCKASQDINKYIAWYQHKPGKGPSLLIHYTSTLQPGVPSRFSGSGSGRDYSFSISNLQPEDIATYYCLQYANLLTFGGGTKLEIKR	0.4 nM	4e-05 s⁻¹	111000 M⁻¹ s⁻¹
humanized anti-GPVI Fab VL1/VH5 (Fab, V domains shown) VH: QVQLQESGPGLVAPSQSLSITCTVSGFSLTGYGVNWVRQPPSRGLEWLGMIWGDGSTDYQSTLKSRLSISKDNSKSQVFLKMNSLTTDDTARYYCARDLPMDEWGQGTSVTVSS VL: DIQMTQSPSSLSASVGGRVTITCKASQDINKYIAWYQHKPGKGPSLLIHYTSTLQPGVPSRFSGSGSGRDYSFSISNLQPEDIATYYCLQYANLLTFGGGTKLEIKR	0.4 nM	3e-05 s⁻¹	81000 M⁻¹ s⁻¹
humanized anti-GPVI Fab VL1/VH2 (Fab, V domains shown) VH: QVQLQESGPGLVAPSQSLSITCTVSGFSLTGYGVNWVRQPPSRGLEWLGMIWGDGSTDYQSTLKSRLSISKDNSKSQVFLKMNSLTTDDTARYYCARDLPMDYWGQGTSVTVSS VL: DIQMTQSPSSLSASVGGRVTITCKASQDINKYIAWYQHKPGKGPSLLIHYTSTLQPGVPSRFSGSGSGRDYSFSISNLQPEDIATYYCLQYANLLTFGGGTKLEIKR	0.2 nM	3e-05 s⁻¹	113000 M⁻¹ s⁻¹
humanized anti-GPVI Fab VL1/VH3 (Fab, V domains shown) VH: EVQLLESGPGLVAPSGSLSITCTVSGFSLTGYGVNWVRQPPGKGLEWLGMIWGDGSTDYQSTLKSRLSISKDNSKSQVFLKMNSLRTDDTARYYCARDLPMDYWGLGTSVTVSS VL: DIQMTQSPSSLSASVGGRVTITCKASQDINKYIAWYQHKPGKGPSLLIHYTSTLQPGVPSRFSGSGSGRDYSFSISNLQPEDIATYYCLQYANLLTFGGGTKLEIKR	0.1 nM	2e-05 s⁻¹	148000 M⁻¹ s⁻¹
humanized anti-GPVI Fab VL1/VH4 (Fab, V domains shown) VH: QVQLQESGPGLVAPSQSLSITCTVSGFSLTYYGVNWVRQPPSRGLEWLGMIWGDGSTDYQSTLKSRLSISKDNSKSQVFLKMNSLTTDDTARYYCARDLPMDYWGQGTSVTVSS VL: DIQMTQSPSSLSASVGGRVTITCKASQDINKYIAWYQHKPGKGPSLLIHYTSTLQPGVPSRFSGSGSGRDYSFSISNLQPEDIATYYCLQYANLLTFGGGTKLEIKR	0.2 nM	2e-05 s⁻¹	124000 M⁻¹ s⁻¹

Further lines, results first:

Kd	koff	kon	Binder
0.3 nM	4e-05 s⁻¹	151000 M⁻¹ s⁻¹	humanized anti-GPVI Fab VL3/VH4 (Fab, V domains shown) VH: QVQLQESGPGLVAPSQSLSITCTVSGFSLTYYGVNWVRQPPSRGLEWLGMIWGDGSTDYQSTLKSRLSISKDNSKSQVFLKMNSLTTDDTARYYCARDLPMDYWGQGTSVTVSS VL: DIQMTQSPSSLSASVGGRVTITCKASQDINKYIAWYQHKPGKGPSLLIHYTSTLQPGVPSRFSGSGSGRDYSFSISNLQPEDIATYYCLQYALLLTFGGGTKLEIKR
0.2 nM	3e-05 s⁻¹	132000 M⁻¹ s⁻¹	humanized anti-GPVI Fab VL3/VH2 (Fab, V domains shown) VH: QVQLQESGPGLVAPSQSLSITCTVSGFSLTGYGVNWVRQPPSRGLEWLGMIWGDGSTDYQSTLKSRLSISKDNSKSQVFLKMNSLTTDDTARYYCARDLPMDYWGQGTSVTVSS VL: DIQMTQSPSSLSASVGGRVTITCKASQDINKYIAWYQHKPGKGPSLLIHYTSTLQPGVPSRFSGSGSGRDYSFSISNLQPEDIATYYCLQYALLLTFGGGTKLEIKR
0.3 nM	3e-05 s⁻¹	108000 M⁻¹ s⁻¹	humanized anti-GPVI Fab VL2/VH2 (Fab, V domains shown) VH: QVQLQESGPGLVAPSQSLSITCTVSGFSLTGYGVNWVRQPPSRGLEWLGMIWGDGSTDYQSTLKSRLSISKDNSKSQVFLKMNSLTTDDTARYYCARDLPMDYWGQGTSVTVSS VL: DIQMTQSPSSLSASVGGRVTITCKASQDINKYIAWYQHKPGKGPSLLIHYTSTLQPGVPSRFSGSGSGRDYSFSISNLQPEDIATYYCLQYAHLLTFGGGTKLEIKR
